Measurements taken from the RNAGym collection of RNA variant scans (doi:10.1021/acssynbio.7b00057).

B1: Pistol ribozyme (parent)
chain: GGGUCGUUGUUCCAUAAUCGCGUGGAUAUGGCACGCAAGUUUCUACCGGGCACCGUAAAUGUCCGACUGGAGCCGUUCGGGCGGCUAUAAACAGACCUCAGGCCCGAAGCGUGGCGGCACCUGCCGCCGGUGGUAAAAAAGAUCGGAAGAGCACACGUCU

Variants of: B1
Experiment: aptazyme ON/OFF ratio, guanine; higher = stronger switching; co-transcriptional cleavage with and without guanine

| Variant | aptazyme ON/OFF ratio |
| --- | --- |
| U8A U10C U11G C12G C13A | 1.29 |
| U8C G9A U10A U11G C13G | 1.08 |
| U7C U8C U10C U11G C12G C13U | 1.1 |
| U7C G9A U10G U11G C12A | 1.16 |
| U7C G9A U10C U11C C13U | 1.03 |
| U7G U8G U10G U11G C12U | 1.36 |
| U7A U8C G9U U10A C12G C13A | 1.11 |
| U7A U8G G9A U11G C12U | 1.36 |
| U7G U8C U10C C13U | 1.64 |
| U7C U8C U10G U11A C12A C13G | 1.12 |
| U7C U8C U10G U11A C12A C13U | 1.25 |
| U8A G9U U10A U11A C12A C13A | 1.16 |
| U7C U8G G9A U10A U11C C12U C13G | 1.08 |
| U7A G9A U10C U11G C12A | 1.04 |
| U8C G9A U10G U11G C12A C13G | 1.14 |
| U8A G9U U10C C12A C13U | 1.05 |
| U7A U11C C12A C13A | 1.35 |
| U7A U8A G9C U10A U11G C12A | 1.05 |
| U7A U11G C12A C13A | 1.15 |
| U7G U8C C12A C13A | 1.13 |
| U7G G9C U10A U11C C12U C13U | 1.18 |
| U7G G9U U10G U11G C12A C13G | 1.07 |
| U7A U8A G9A U10G C12U C13G | 1.17 |
| U7C U8C G9U U10C U11G C12G C13G | 1.09 |

| Variant | aptazyme ON/OFF ratio |
| --- | --- |
| U7G G9C U10A C12G C13G | 1.1 |
| U7C U8G G9C U10C C12U C13U | 1.09 |
| U8C G9C U10G U11A C12U C13G | 1.08 |
| U7A U8G G9U U10A U11G C12G C13U | 1.52 |
| U7G U8A G9U U10G | 1.51 |
| U8A G9A U10C U11C C12U C13U | 1.05 |
| G9C U10G U11A C12G C13G | 1.24 |
| U8G G9U U11G C12A | 1.32 |
| G9A U10A U11A C12A C13U | 1.97 |
| U8G U10A C12G | 1.23 |
| U8G G9A U10C U11C | 1.03 |
| U7G U8C G9A U10C U11C C12U C13G | 1.04 |
| U7A U8G G9C C13A | 1.47 |
| U7C U8C G9C U11G C12G C13U | 1.1 |
| U8A G9C U10C U11G C12U C13A | 1.07 |
| U7G U8A U10G U11C C12G C13U | 1.25 |
| U7A U8A G9A U11G C12U C13A | 1.16 |
| U7G U8G G9C U11A C13U | 1.36 |
| U7C U8A G9U U10C U11G C12A C13U | 1.1 |
| U7A U8A G9C U10G U11G C12G C13G | 1.13 |
| U7A U10C C12G C13U | 1.28 |
| U7G U8C G9A U10G U11C C12G C13U | 1.18 |
| U7A U8C G9A U11A C12U C13A | 1.25 |
| U7A U8C G9U U10G U11G C12A C13A | 1.12 |

| Variant | aptazyme ON/OFF ratio |
| --- | --- |
| U7G U8A U10G U11A C12U C13G | 1.37 |
| U8A G9A U10C U11A C12U C13A | 1.31 |
| U10C U11A | 1.47 |
| U7C U8C G9C U10C C13A | 1.04 |
| U7G U8A G9A U10G U11C C12G C13A | 1.1 |
| U7G U8G G9U U11A C12A | 1.43 |
| U7A G9U U10G U11G C12U C13U | 1.51 |
| U7G U10C U11A C12A C13U | 1.16 |
| U8C G9C U11C C12U C13A | 1.05 |
| U7C G9A U10A U11A C12A | 1.24 |
| U7G U8G G9C U10G U11A C13A | 1.1 |
| U7G U8G G9A U10G U11C C12A C13A | 1.17 |
| U7C U8A G9U U11C C12U | 1.17 |
| U7G G9A U10G C12U C13A | 1.11 |
| U7A U8G G9C C12G | 1.29 |
| U7C U8G G9A U10A C12G C13U | 1.31 |
| U7G U8A G9U U10A U11A C12U C13A | 1.07 |
| U7A U8C G9C U10G U11C C12U C13U | 1.11 |
| U7C U10A U11A C12G C13G | 1.33 |
| U7G U8G G9C U10G U11C C12G | 1.18 |
| U8A G9C U10G U11C C12G | 1.14 |
| U10C U11A C12G C13U | 1.37 |
| U7G U8G U10A U11G C12U | 1.38 |
| U7G U8G G9A U10A C13G | 1.17 |

| Variant | aptazyme ON/OFF ratio |
| --- | --- |
| U7A U8A G9U U10C U11G C12A C13U | 1.18 |
| U7A U8C G9A U10G U11A C12G C13G | 1.07 |
| U8C G9A U10A U11A C12A C13U | 1.3 |
| U10A C12A | 1.62 |
| U7A U8C G9U U11A C13U | 1.28 |
| U7A U8G G9U U10G | 1.47 |
| U7C U8C G9U U10G C12G C13U | 1.09 |
| U7G U8A U10A U11A C12U C13A | 1.22 |
| U7G U8A G9C U10C U11C C12G C13G | 1.04 |
| U7A U8A G9A U10G U11C C12A C13U | 1.19 |
| U7G U8C G9C U10A U11A C12U | 1.16 |
| U7A U8C G9C U10A U11G C12A C13U | 1.11 |
| U7C U8G G9U U10G U11G C12G C13A | 1.15 |
| U8C G9U U10A U11A C12G C13G | 1.16 |
| U7G U8G G9A U10G U11A C12G | 1.15 |
| U7G U8G G9U U10A U11C C12U | 1.22 |
| U7C G9A U10G U11G C12G C13U | 1.07 |
| U7G G9C U11A C12A C13G | 1.27 |
| U8C G9C U10G | 1.43 |
| U7C G9U U10G C12G | 1.12 |
| U8A G9A C12G | 1.41 |
| U8A G9U U10A U11G C12A C13U | 1.21 |
| U7G U8G G9A U10A U11C C12U C13G | 1.17 |
| U7G U8G U11C C12A C13U | 1.26 |

| Variant | aptazyme ON/OFF ratio |
| --- | --- |
| U7A U8C U10A | 1.06 |
| U7A U8A U10G C12G | 1.43 |
| U7C U8C U10C U11A C13U | 1.31 |
| U7G U8G G9C U10C U11A C12U | 1.3 |
| U7C U8A U10A U11A | 1.14 |
| U7G U8A U10G C13A | 1.3 |
| U7C U8G G9U U10A U11G C12U C13A | 1.11 |
| U7G G9A U10A U11A C12U | 1.2 |
| U7G U8G G9A U10A U11G C13A | 1.09 |
| U7A U8C U10A U11C C12U C13U | 1.05 |
| U7A G9C U10C U11C | 0.989 |
| U7A G9A U10G U11G C12U C13G | 1.33 |
| U7A G9U U10G U11G C12A C13A | 1.11 |
| U7C U10C U11C C12G C13A | 1.25 |
| U8C G9C U10A U11C C12A C13U | 1.22 |
| U7C U8G G9C U10G C12A C13A | 1.16 |
| U7G U8A G9A U10C U11A C12U C13G | 1.03 |
| U7C U8A U10A U11G C13G | 1.04 |
| G9C U10A U11C C12U | 1.13 |
| U7A U8A C12A | 1.76 |
| U7G U8G G9U U10C U11A C12A C13A | 1.3 |
| U7G U8C U10C U11G C12A C13A | 1.16 |
| U8A G9A U10A U11A C12G | 1.24 |
| U7G U8G G9A U10A C12U C13U | 1.35 |

| Variant | aptazyme ON/OFF ratio |
| --- | --- |
| U7A U8G G9A U11C C12A C13G | 1.3 |
| G9A U10G U11A C12A C13A | 1.08 |
| U7G U10C U11A C12U C13G | 1.11 |
| U7C U8C G9C U10C U11G C12G C13A | 1.08 |
| U7G G9U U10C U11C C12G | 1.23 |
| U7G U8G G9A U10C C12U C13A | 1.11 |
| U7A U8C G9A U10A U11A C12G C13U | 1.21 |
| U7C U8G G9C U11G C12G C13A | 1.13 |
| U8A G9A U10G U11G C13G | 1.12 |
| U7C G9U U10G U11A C12A C13G | 1.13 |
| U7C G9U U10G U11A C12A C13A | 1.2 |
| U7A U8A U10A U11G C12U | 1.17 |
| U7A U8A G9U U10G U11G C12A C13A | 1.24 |
| U7G U8G U10G U11C C12U C13G | 1.15 |
| U8C G9U U10A U11A C13A | 1.15 |
| U7G G9C U10A C12U C13A | 1.09 |
| U7G G9A U10C U11A C12U C13U | 1.04 |
| G9U U10G U11G C12G | 1.82 |
| U8A U10G U11C C12G C13A | 1.41 |
| U8G G9U U11G C12A C13G | 1.19 |
| U10A U11A C12G C13G | 1.3 |
| U7C U8A G9C U11G C12G C13G | 1.07 |
| U7C U8A G9C U11G C12G C13A | 1.1 |
| U7C U8A G9C U11G C12G C13U | 1.05 |

| Variant | aptazyme ON/OFF ratio |
| --- | --- |
| U8G G9A C12U | 1.39 |
| U7C U8C G9U U10A U11C C12A C13G | 1.15 |
| U7A G9U U10A C12G | 1.28 |
| U7G U8A G9C U11A C12U C13U | 1.02 |
| U8G G9C U10A U11G C13U | 1.05 |
| U7A G9A U10A C12A C13A | 1.1 |
| U7G U8G G9C U10G U11C C12U C13A | 1.15 |
| U7A U8G G9U U10C U11C C12A C13U | 1.2 |
| U7A U8G G9U U10C U11C C12A C13A | 1.21 |
| U8G G9A U11A C12A C13G | 1.25 |
| U7G G9A U10G U11C | 1.04 |
| U7C U8C G9A C12G C13U | 1.24 |
| U7C U8G G9U U10C U11G C12A C13U | 1.22 |
| U7C U8C G9U U10A C12G C13U | 1.08 |
| U7A U8C G9A U10C U11A C12G | 1.21 |
| U7A U8G G9U U10C U11A C12U C13U | 1.36 |
| U7G G9U U10A U11A C13U | 1.39 |
| U7C U8A G9U U11G C12A C13A | 1.12 |
| U7C U8C G9C U10G U11C C12U C13G | 1.14 |
| U7C U8C G9C U10G C13A | 1.13 |
| U7G U8C G9A U10G U11A C13U | 1.05 |
| U8G U10C U11G C12A C13A | 1.16 |
| U8C U10A U11C C13G | 1.04 |
